{
  "source": "paper PMC12559291",
  "key": {"[1]": {"target": "α5β1 integrin purified from rat liver (rat) (UniProt P49134)", "experiment": "cryo-EM structure; rat α5β1 integrin in GSL-containing nanodiscs on cobalt beads, sialidase-treated, 4 μM Gal3 for 2 h at 21 °C, eluted with 10 mM EDTA and vitrified at once; three subsets at 7.4, 8.5 and 7.6 Å; Gal3 CRDs (PDB 1KJL) fitted as rigid bodies"}, "[2]": {"target": "galectin-3 (Gal3), human recombinant, made as Gal3-TEV-6xHis and freed of the tag by TEV protease (human) (UniProt P17931)", "experiment": "cryo-EM structure; rat α5β1 integrin in GSL-containing nanodiscs on cobalt beads, sialidase-treated, 4 μM Gal3 for 2 h at 21 °C, eluted with 10 mM EDTA and vitrified at once; three subsets at 7.4, 8.5 and 7.6 Å; Gal3 CRDs (PDB 1KJL) fitted as rigid bodies"}, "[3]": {"target": "galectin-3 (Gal3), human recombinant, made as Gal3-TEV-6xHis and freed of the tag by TEV protease (human) (UniProt P17931)", "experiment": "negative stain EM; lactose-washed RPE-1 cells with exogenous Gal3 (50 μg/mL) for 30 min at 4 °C; surface-bound Gal3 eluted with I3; 2D classification of the eluted particles in cryoSPARC"}, "[4]": {"target": "galectin-3 (Gal3), human recombinant, made as Gal3-TEV-6xHis and freed of the tag by TEV protease (human) (UniProt P17931)", "experiment": "negative stain EM; Gal3 or Gal3∆Nter (4 μM, 2 h at 21 °C) on inactive rat α5β1 integrin in nanodiscs held on cobalt beads, washed, eluted with 50 μM I3; the eluted particles counted as monomers or ring-shaped oligomers"}, "[5]": {"target": "α5β1 integrin purified from rat liver (rat) (UniProt P49134)", "experiment": "single-molecule photobleaching (TIRF); sialidase-treated rat α5β1 integrin in biotinylated peptidiscs complexed with 4 μM Gal3-Cy3 on cobalt beads, eluted with EDTA, immobilised on neutravidin-coated glass; 21 °C"}, "[6]": {"target": "α5β1 integrin purified from rat liver (rat) (UniProt P49134)", "experiment": "cryo-EM structure; rat α5β1 integrin in peptidiscs on cobalt beads, sialidase-treated, 4 μM Gal3 for 2 h at 21 °C, eluted with 10 mM EDTA and vitrified at once; 6.9 Å"}},
  "note": "“And” between values parts separate entries of the source, which are not always exact repeats. Equal entries are not always repeated.",
  "data": [
    {"substance": "galectin-3 (Gal3), human recombinant, made as Gal3-TEV-6xHis and freed of the tag by TEV protease (from UniProt P17931 1-250) (natural protein)", "values": [
      {"measurement": "stoichiometry N", "setting": "[1]", "value": "2 and 3 and 4"},
      {"measurement": "stoichiometry N", "setting": "[2]", "value": "2 and 3 and 4"},
      {"measurement": "percent of oligomer particles classed as dimers", "setting": "[3]", "value": 37, "unit": "%"},
      {"measurement": "percent of oligomer particles classed as tetramers", "setting": "[3]", "value": 22, "unit": "%"},
      {"measurement": "percent of oligomer particles classed as trimers", "setting": "[3]", "value": 41, "unit": "%"},
      {"measurement": "stoichiometry N", "setting": "[3]", "value": "2 and 3 and 4"},
      {"measurement": "percent of eluted Gal3 particles that are ring-shaped oligomers", "setting": "[4]", "value": 40, "unit": "%"},
      {"measurement": "stoichiometry N", "setting": "[5]", "value": "< 4"},
      {"measurement": "stoichiometry N", "setting": "[6]", "value": 2}
    ]}
  ]
}
